Values quoted from earlier work in article PMC4517114.
Where two headings read alike, the source gives them in different places.

How the values were obtained:
[1] = biological target: MAGI-1 PDZ (Homo sapiens) (UniProt Q96QZ7)
[2] = biological target: MAGI-1 PDZ (Homo sapiens) (UniProt Q96QZ7); remark: listed apart in the source

Sequence of UniProt Q96QZ7 (Q96QZ7 472-554): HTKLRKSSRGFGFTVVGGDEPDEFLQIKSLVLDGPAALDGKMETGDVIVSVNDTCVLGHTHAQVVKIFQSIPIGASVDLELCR

Substance	Kd [1] [nM]	Kd [2] [nM]
HPV16 E6 (from UniProt P03126)	3000	
HPV18 E6 (from UniProt P06463)		1500
